# What was measured:
# [1] = biological target: MHC class II molecules on MHC class II-expressing Raji cells (human); experiment: direct ELISA, plate-immobilised Raji cells; 5% BSA, 5,000 cells; 250 ng/ml
# [2] = biological target: MHC class II molecules on MHC class II-expressing Raji cells (human); experiment: transfer cell ELISA, Raji cells; 500 ng/ml; plate row C
# [3] = biological target: MHC class II molecules on MHC class II-expressing Raji cells (human); experiment: direct ELISA, plate-immobilised Raji cells; 5% BSA, 5,000 cells; 500 ng/ml
# [4] = biological target: MHC class II molecules on MHC class II-expressing Raji cells (human); experiment: transfer cell ELISA, Raji cells; 62.5 ng/ml; plate row D
# [5] = biological target: MHC class II molecules on MHC class II-expressing Raji cells (human); experiment: direct ELISA, plate-immobilised Raji cells; 10% FBS, 2,500 cells; 15.625 ng/ml
# [6] = biological target: MHC class II molecules on MHC class II-expressing Raji cells (human); experiment: direct ELISA, plate-immobilised Raji cells; 5% BSA, 10,000 cells; 15.625 ng/ml
# [7] = biological target: MHC class II molecules on MHC class II-expressing Raji cells (human); experiment: direct ELISA, plate-immobilised Raji cells; 5% BSA, 5,000 cells; 125 ng/ml
# [8] = biological target: MHC class II molecules on MHC class II-expressing Raji cells (human); experiment: direct ELISA, plate-immobilised Raji cells; 5% BSA, 10,000 cells; 250 ng/ml
# [9] = biological target: MHC class II molecules on MHC class II-expressing Raji cells (human); experiment: transfer cell ELISA, Raji cells; 0.977 ng/ml; plate row D
# [10] = biological target: MHC class II molecules on MHC class II-expressing Raji cells (human); experiment: direct ELISA, plate-immobilised Raji cells; 5% BSA, 10,000 cells; 125 ng/ml
# [11] = biological target: MHC class II molecules on MHC class II-expressing Raji cells (human); experiment: direct ELISA, plate-immobilised Raji cells; 0.5% Casein, 5,000 cells; 31.25 ng/ml
# [12] = biological target: MHC class II molecules on MHC class II-expressing Raji cells (human); experiment: direct ELISA, plate-immobilised Raji cells; 0.5% Casein, 5,000 cells; 250 ng/ml
# [13] = biological target: MHC class II molecules on MHC class II-expressing Raji cells (human); experiment: transfer cell ELISA, Raji cells; 7.813 ng/ml
# [14] = biological target: MHC class II molecules on MHC class II-expressing Raji cells (human); experiment: direct ELISA, plate-immobilised Raji cells; 3% gelatin, 5,000 cells; 31.25 ng/ml
# [15] = biological target: MHC class II molecules on MHC class II-expressing Raji cells (human); experiment: direct ELISA, plate-immobilised Raji cells; 0.5% Casein, 2,500 cells; 125 ng/ml
# [16] = biological target: MHC class II molecules on MHC class II-expressing Raji cells (human); experiment: direct ELISA, plate-immobilised Raji cells; 0.5% Casein, 10,000 cells; 62.5 ng/ml
# [17] = biological target: MHC class II molecules on MHC class II-expressing Raji cells (human); experiment: transfer cell ELISA, Raji cells; 62.5 ng/ml
# [18] = biological target: MHC class II molecules on MHC class II-expressing Raji cells (human); experiment: BLI; immobilised sample, Raji cells in solution; pH 7.0 control of FIG. 20
# [19] = biological target: MHC class II molecules on MHC class II-expressing Raji cells (human); experiment: BLI; immobilised sample, Raji cells in solution; dark control of FIG. 24
# [20] = biological target: MHC class II molecules on MHC class II-expressing Raji cells (human); experiment: transfer cell ELISA, Raji cells; 250 ng/ml
# [21] = biological target: MHC class II molecules on MHC class II-expressing Raji cells (human); experiment: direct ELISA, plate-immobilised Raji cells; 3% gelatin, 5,000 cells; 250 ng/ml
# [22] = biological target: MHC class II molecules on MHC class II-expressing Raji cells (human); experiment: direct ELISA, plate-immobilised Raji cells; 3% gelatin, 2,500 cells; 15.625 ng/ml
# [23] = biological target: MHC class II molecules on MHC class II-expressing Raji cells (human); experiment: direct ELISA, plate-immobilised Raji cells; 3% gelatin, 2,500 cells; 62.5 ng/ml
# [24] = biological target: MHC class II molecules on MHC class II-expressing Raji cells (human); experiment: direct ELISA, plate-immobilised Raji cells; 3% gelatin, 2,500 cells; 125 ng/ml
# [25] = biological target: MHC class II molecules on MHC class II-expressing Raji cells (human); experiment: BLI; immobilised sample, Raji cells in solution; control of FIG. 18 (37° C., 1 day, no H2O2)
# [26] = biological target: MHC class II molecules on MHC class II-expressing Raji cells (human); experiment: transfer cell ELISA, Raji cells; 15.63 ng/ml
# [27] = biological target: MHC class II molecules on MHC class II-expressing Raji cells (human); experiment: direct ELISA, plate-immobilised Raji cells; 0.5% Casein, 2,500 cells; 250 ng/ml
# [28] = biological target: MHC class II molecules on MHC class II-expressing Raji cells (human); experiment: direct ELISA, plate-immobilised Raji cells; 0.5% Casein, 5,000 cells; 1000 ng/ml
# [29] = biological target: MHC class II molecules on MHC class II-expressing Raji cells (human); experiment: transfer cell ELISA, Raji cells; 1000 ng/ml
# [30] = biological target: MHC class II molecules on MHC class II-expressing Raji cells (human); experiment: direct ELISA, plate-immobilised Raji cells; 0.5% Casein, 5,000 cells; 500 ng/ml
substance,measurement,setting,value
IMP321 treated with Peptide-N-Glycosidase F (PNGase F) (Fc fusion),OD (ELISA signal),[1],1.09 OD
same,OD (ELISA signal),[2],0.642 OD
same,OD (ELISA signal),[3],1.36 OD
same,OD (ELISA signal),[4],0.076 OD
same,OD (ELISA signal),[5],0.27 OD
same,OD (ELISA signal),[6],0.366 OD
same,OD (ELISA signal),[7],0.476 OD
same,OD (ELISA signal),[8],0.91 OD
same,OD (ELISA signal),[9],0.01 OD
same,OD (ELISA signal),[10],0.395 OD
"IMP321, recombinant soluble human LAG-3Ig fusion protein (Fc fusion)",OD (ELISA signal),[11],0.143 OD
same,OD (ELISA signal),[12],0.255 OD
same,OD (ELISA signal),[13],0.053 OD
same,OD (ELISA signal),[14],0.359 OD
same,OD (ELISA signal),[15],0.163 OD
same,OD (ELISA signal),[16],0.142 OD
same,OD (ELISA signal),[17],0.223 OD
same,Bioactivity (binding),[18],126%
same,Bioactivity (binding),[19],100%
same,OD (ELISA signal),[20],0.956 OD
same,OD (ELISA signal),[21],2.1 OD
same,OD (ELISA signal),[22],0.295 OD
same,OD (ELISA signal),[23],0.399 OD
same,OD (ELISA signal),[24],0.77 OD
same,Bioactivity (binding),[25],77%
same,OD (ELISA signal),[26],0.098 OD
same,OD (ELISA signal),[27],0.231 OD
same,OD (ELISA signal),[28],0.136 OD
same,OD (ELISA signal),[29],2.03 OD
same,OD (ELISA signal),[30],0.206 OD

# — patent publication US20190361034A1
